From publication PMC10397247 come the findings set out here.

Holding throughout (experiment): two-hybrid library CCmax;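 note: natural log of median RNA to DNA barcode read ratio; higher means stronger binding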
One assay has as its target T1, P6-AA-12HGe-A.
T1 chain: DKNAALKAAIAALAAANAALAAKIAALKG
Conditions: mean of both orientations.

Another assay deals with T2, P6-AA-12HGe-D.
T2 chain: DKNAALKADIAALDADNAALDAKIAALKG
Conditions: mean of both orientations.

The next assay concerns the target T3, P6-AA-12HGe-H.
T3 chain: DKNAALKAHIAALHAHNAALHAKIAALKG
Conditions: mean of both orientations.

In the next assay the target is T4, P6-AA-12HGe-K.
T4 chain: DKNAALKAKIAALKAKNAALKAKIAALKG
The following applies: mean of both orientations.

Another assay addresses T5, P6-AA-12HGe-M.
T5 chain: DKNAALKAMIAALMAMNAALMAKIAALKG
The following applies: mean of both orientations.

The next assay addresses T6, P6-AA-12HGe-Q.
T6 chain: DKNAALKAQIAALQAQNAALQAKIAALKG
The following applies: mean of both orientations.

The target of the next assay is T7, P6-AA-12HGe-R.
T7 chain: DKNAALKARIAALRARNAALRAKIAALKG
The following applies: mean of both orientations.

The next assay has as its target T8, P6-AA-12HGe-S.
T8 chain: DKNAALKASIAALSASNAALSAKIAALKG
Conditions: mean of both orientations.

The target of the next assay is T9, P6-AA-12HGe-T.
T9 chain: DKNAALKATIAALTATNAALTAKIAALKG
The following applies: mean of both orientations.

A further assay addresses T10, P6-AA-12HGe-W.
T10 chain: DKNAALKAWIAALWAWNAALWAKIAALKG
The following applies: mean of both orientations.

The target in another assay is T11, P2-AA-12HGe-A.
T11 chain: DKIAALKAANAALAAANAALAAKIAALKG
Conditions: mean of both orientations.

For a further assay, the target named is T12, P2-AA-12HGe-D.
T12 chain: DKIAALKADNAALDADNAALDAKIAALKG
Conditions: mean of both orientations.

Another assay concerns the target T13, P2-AA-12HGe-E.
T13 chain: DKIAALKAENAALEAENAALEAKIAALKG
The following applies: mean of both orientations.

The next assay deals with T14, P2-AA-12HGe-H.
T14 chain: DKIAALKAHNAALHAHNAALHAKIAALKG
Conditions: mean of both orientations.

For another assay, the target named is T15, P2-AA-12HGe-M.
T15 chain: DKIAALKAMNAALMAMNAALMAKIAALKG
The following applies: mean of both orientations.

Another assay has as its target T16, P2-AA-12HGe-Q.
T16 chain: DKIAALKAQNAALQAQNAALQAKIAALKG
The following applies: mean of both orientations.

Another assay concerns the target T17, P2-AA-12HGe-R.
T17 chain: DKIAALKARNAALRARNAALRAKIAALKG
Conditions: mean of both orientations.

The next assay deals with T18, P2-AA-12HGe-S.
T18 chain: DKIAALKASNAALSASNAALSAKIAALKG
The following applies: mean of both orientations.

The target in the next assay is T19, P2-AA-12HGe-T.
T19 chain: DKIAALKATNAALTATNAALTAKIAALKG
The following applies: mean of both orientations.

In a further assay the target is T20, P2-AA-12HGe-W.
T20 chain: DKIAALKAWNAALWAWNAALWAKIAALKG
Conditions: mean of both orientations.

The target in a further assay is T21, P2-AA.
T21 chain: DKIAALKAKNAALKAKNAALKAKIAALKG
Conditions: mean of both orientations.

The target in the next assay is T22, AP5-AA.
T22 chain: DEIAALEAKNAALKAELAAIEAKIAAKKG

The target in the next assay is T23, AP6-AA.
T23 chain: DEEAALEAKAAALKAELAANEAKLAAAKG
The following applies: mean of both orientations.

The target of another assay is T24, AP7-AA.
T24 chain: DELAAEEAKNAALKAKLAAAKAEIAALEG
The following applies: mean of both orientations.

In a further assay the target is T25, AP8-AA.
T25 chain: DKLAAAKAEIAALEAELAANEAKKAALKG
Conditions: mean of both orientations.

The target of another assay is GCN2_T.
For a further assay, the target named is T26, P1-AA.
T26 chain: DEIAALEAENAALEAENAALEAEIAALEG
The following applies: mean of both orientations.

For the next assay, the target named is T27, P10-AA.
T27 chain: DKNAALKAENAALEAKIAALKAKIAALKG
The following applies: mean of both orientations.

The target in the next assay is T28, P11-AA.
T28 chain: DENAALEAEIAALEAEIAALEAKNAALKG
The following applies: mean of both orientations.

A further assay has as its target T29, P12-AA.
T29 chain: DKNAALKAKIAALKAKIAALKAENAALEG
Conditions: mean of both orientations.

In another assay the target is T30, P3-AA.
T30 chain: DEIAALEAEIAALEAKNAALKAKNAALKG
Conditions: mean of both orientations.

The target in a further assay is T31, P4-AA.
T31 chain: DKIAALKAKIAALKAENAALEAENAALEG
The following applies: mean of both orientations.

The target in another assay is T32, P7-AA.
T32 chain: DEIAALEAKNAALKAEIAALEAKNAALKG
Conditions: mean of both orientations.

In another assay the target is T33, P8-AA.
T33 chain: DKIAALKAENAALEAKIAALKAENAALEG
Conditions: mean of both orientations.

The next assay deals with T34, P9-AA.
T34 chain: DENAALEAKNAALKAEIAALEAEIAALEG
Conditions: mean of both orientations.

B1: P5-AA-12HGe-W (peptide)
chain: DENAALEAWIAALWAWNAALWAEIAALEG
As to B1, the interaction score in the assay with P6-AA-12HGe-A is -0.131; in the assay with P6-AA-12HGe-D, -1.67; with P6-AA-12HGe-H, -1.46; in the assay with P6-AA-12HGe-K, -2.03; with P6-AA-12HGe-M it was 0.011; with P6-AA-12HGe-Q, 0.162. For the same molecule, the interaction score is -1.34 with P6-AA-12HGe-R, -0.198 with P6-AA-12HGe-S, -0.564 in the assay with P6-AA-12HGe-T and -1.05 with P6-AA-12HGe-W.

B2: P5-AA-12HGe-T (peptide)
chain: DENAALEATIAALTATNAALTAEIAALEG
Regarding B2, the interaction score in the assay with P6-AA-12HGe-A was -0.0467; in the assay with P6-AA-12HGe-D it was -1.71; with P6-AA-12HGe-H, -1.26; in the assay with P6-AA-12HGe-K, 0.446; in the assay with P6-AA-12HGe-M, -0.283; with P6-AA-12HGe-Q, 1.22. Moreover, the interaction score was 0.245 with P6-AA-12HGe-R, -1.32 with P6-AA-12HGe-S, -0.438 in the assay with P6-AA-12HGe-T and -1.07 in the assay with P6-AA-12HGe-W.

B3: P5-AA-12HGe-S (peptide)
chain: DENAALEASIAALSASNAALSAEIAALEG
With B3, the interaction score was -1.21 with P6-AA-12HGe-A; -1.45 with P6-AA-12HGe-D; -1.52 with P6-AA-12HGe-H; -0.261 with P6-AA-12HGe-K; -1.66 in the assay with P6-AA-12HGe-M; -0.404 with P6-AA-12HGe-Q. The interaction score in the assay with P6-AA-12HGe-R is -0.734; in the assay with P6-AA-12HGe-S it was -2.05; in the assay with P6-AA-12HGe-T, -1.05; in the assay with P6-AA-12HGe-W, -1.53.

B4: P5-AA-12HGe-A (peptide)
chain: DENAALEAAIAALAAANAALAAEIAALEG
As for B4, the interaction score in the assay with P6-AA-12HGe-A is -0.0358; in the assay with P6-AA-12HGe-D it was -1.87; with P6-AA-12HGe-H it was -0.816; with P6-AA-12HGe-K, 0.623; with P6-AA-12HGe-M, 0.58; with P6-AA-12HGe-Q, 1.38. Moreover, the interaction score with P6-AA-12HGe-R was 0.304; in the assay with P6-AA-12HGe-S, -1.02; in the assay with P6-AA-12HGe-T it was -0.125; in the assay with P6-AA-12HGe-W, -0.644.

B5: P5-AA-12HGe-D (peptide)
chain: DENAALEADIAALDADNAALDAEIAALEG
In the case of B5, the interaction score is -1.85 with P6-AA-12HGe-A; -1.85 with P6-AA-12HGe-D; -2.35 with P6-AA-12HGe-H; -0.581 with P6-AA-12HGe-K; -2.09 with P6-AA-12HGe-M; -1.56 with P6-AA-12HGe-Q. Besides, the interaction score was -0.833 in the assay with P6-AA-12HGe-R, -2.03 in the assay with P6-AA-12HGe-S, -1.98 in the assay with P6-AA-12HGe-T and -1.67 in the assay with P6-AA-12HGe-W.

B6: P5-AA-12HGe-Y (peptide)
chain: DENAALEAYIAALYAYNAALYAEIAALEG
As to B6, the interaction score is -0.307 with P6-AA-12HGe-A; -1.93 with P6-AA-12HGe-D; -0.445 in the assay with P6-AA-12HGe-H; -0.203 with P6-AA-12HGe-K; 0.0241 in the assay with P6-AA-12HGe-M; 0.323 with P6-AA-12HGe-Q. Also, the interaction score was -0.752 with P6-AA-12HGe-R, -1.51 in the assay with P6-AA-12HGe-S, -0.218 in the assay with P6-AA-12HGe-T and -0.852 with P6-AA-12HGe-W.

B7: P1-AA-12HGe-W (peptide)
chain: DEIAALEAWNAALWAWNAALWAEIAALEG
Regarding B7, the interaction score with P2-AA-12HGe-A was 1.75; in the assay with P2-AA-12HGe-D it was -1.76; with P2-AA-12HGe-E it was 1.5; with P2-AA-12HGe-H, -1.02; with P2-AA-12HGe-M, 0.936; in the assay with P2-AA-12HGe-Q, 1.69. Further, the interaction score in the assay with P2-AA-12HGe-R was 0.108; with P2-AA-12HGe-S, -0.243; with P2-AA-12HGe-T, -0.385; with P2-AA-12HGe-W, -0.0819; with P2-AA it was -1.08.

B8: P1-AA-12HGe-H (peptide)
chain: DEIAALEAHNAALHAHNAALHAEIAALEG
Consider B8, for which the interaction score was 0.105 in the assay with P2-AA-12HGe-A; -1.6 with P2-AA-12HGe-D; 2 with P2-AA-12HGe-E; -1.82 in the assay with P2-AA-12HGe-H; -0.622 with P2-AA-12HGe-M; 0.16 with P2-AA-12HGe-Q. Further, the interaction score with P2-AA-12HGe-R was -1.54; in the assay with P2-AA-12HGe-S it was -1.37; in the assay with P2-AA-12HGe-T, -1.51; in the assay with P2-AA-12HGe-W it was -1.45; with P2-AA, -1.14.

B9: P1-AA-12HGe-K (peptide)
chain: DEIAALEAKNAALKAKNAALKAEIAALEG
In the case of B9, the interaction score is 1.6 with P2-AA-12HGe-A; 0.189 with P2-AA-12HGe-D; 2.31 in the assay with P2-AA-12HGe-E; -1.62 with P2-AA-12HGe-H; 0.464 with P2-AA-12HGe-M; 1.06 in the assay with P2-AA-12HGe-Q. Besides, the interaction score is -1.01 with P2-AA-12HGe-R; 0.655 in the assay with P2-AA-12HGe-S; -0.493 with P2-AA-12HGe-T; -2.11 in the assay with P2-AA-12HGe-W; -0.289 with P2-AA.

B10: P5-AA-12HGe-H (peptide)
chain: DENAALEAHIAALHAHNAALHAEIAALEG
For the molecule B10, the interaction score in the assay with P6-AA-12HGe-A is -1.29; with P6-AA-12HGe-D, -1.79; with P6-AA-12HGe-H, -1.62; with P6-AA-12HGe-K it was -1.26; with P6-AA-12HGe-M it was -1.41; with P6-AA-12HGe-Q, -0.057. Also, the interaction score in the assay with P6-AA-12HGe-R was -1.38; in the assay with P6-AA-12HGe-S, -2; with P6-AA-12HGe-T, -1.15; in the assay with P6-AA-12HGe-W, -2.54.

B11: AP5-AA (peptide)
chain: DEIAALEAKNAALKAELAAIEAKIAAKKG
As for B11, the interaction score with AP5-AA is -0.918; in the assay with AP6-AA it was 1.53; with AP7-AA, -1.69; with AP8-AA, -1.08; with GCN2_T, -0.794; in the assay with P1-AA, -1.35. The interaction score is 1.37 in the assay with P10-AA; -0.907 with P11-AA; -1.41 with P12-AA; -1.24 in the assay with P2-AA; -1.62 in the assay with P3-AA; -0.912 with P4-AA. Further, the figures for the interaction score in the assay with P7-AA, with P8-AA and in the assay with P9-AA were -0.672, 2.11 and -0.644, respectively.
